Assay results reported in the RNAGym collection of RNA variant scans (doi:10.7554/elife.80360).

B1: Hairpin Ribozyme (parent)
chain: GUCCUCUUUCACGUGCGCGUGAAAGAGAGAAGUGAACCAGAGAAACACACGUUGUGGUAUAUUACCUGGUA

Variants of: B1
Experiment: self-cleavage, relative activity (ratio to wild type); higher = more cleavage; co-transcriptional

Variant	self-cleavage
G13A U55G	0.112
G13C G19A	0.753
G13C G19C	0.58
G13U A36U	0.47
G13U G21U	0.53
G13U A26U	0.52
G13U A26C	0.416
U14A A26G	0.575
U14C A44G	0.155
G13C C65U	0.243
U14G G42U	0.163
G13U A35G	0.709
G13U A35C	0.876
U14C A47C	0.484
U14C A47U	0.112
G13U U63A	0.103
G13U U63C	0.181
U14G A47C	0.218
G15A A61U	0.283
G15A A61C	0.161
G13C U62C	0.147
G13U C48A	0.0958
G13U C48U	0.125
G13U G54C	0.293

Variant	self-cleavage
U14C A23G	0.841
U14G A45C	0.243
G13C G21C	0.587
U14A A61G	0.101
U14A A61U	0.266
U14A U53A	1.12
U14C C50G	0.268
G13U C65U	0.301
G13U C65G	0.193
G13C A39U	0.289
G13U G29C	0.133
G13U G29A	0.157
G13U A31C	0.133
U14C U20G	1.09
U14C U20C	1.03
U14C U20A	0.774
G13U A43C	0.147
G15A A22G	1.11
G15A A22C	0.821
G15A A22U	0.699
U14C U70A	0.814
U14C C46G	0.0498
U14C C46A	0.174
U14C C46U	0.078

Variant	self-cleavage
G13C A59U	0.132
U14C A22C	0.832
U14C A22U	1.06
G13U G40U	0.153
G13U G40C	0.122
U14G U53G	0.287
U14C G29C	0.17
U14A G57A	0.139
U14G C66G	0.173
U14G C66U	0.217
G13C A22C	0.591
U14G G57A	0.146
U14G U62A	0.209
U14C A39G	0.243
U14C A39C	0.475
U14G G51A	0.989
U14C C37U	0.376
G13C A35C	0.717
U14G U63C	0.175
U14G U63G	0.153
U14C C48G	0.26
G13C G56U	0.202
G13C G56C	0.17
U14G G17U	0.513

Variant	self-cleavage
U14G G17C	0.415
G13C U67A	0.189
G15A A35C	0.806
G15A A35U	0.52
G13C G51A	0.521
U14C G69U	0.3
U14C U63A	0
U14C U63C	0.392
G13U A30U	0.164
G13U U53G	0.716
U14A G29C	0.168
U14A G29U	0.206
U14G A49G	0.386
U14C U58A	0.763
U14C U58C	0.78
G15A C18A	1.09
U14G A36U	0.311
U14G C48U	0.0482
G13U C46G	0.121
G13U C46U	0.137
U14A U70G	0.714
U14A U70C	1.01
G13C G54U	0.532
U14C U52A	1.03

Variant	self-cleavage
U14C U52G	0.512
G13U U70C	0.784
G13U U70G	0.78
G13U G32U	0.157
G13C C48A	0.16
G13C U70G	0.502
G13C G17A	0.839
G13C G17C	0.368
G13U U67A	0.257
U14A A45U	0.116
U14A A45C	0.21
U14C G57U	0.265
G13U U14A	0.88
G13U U14G	0.729
G13U C66U	0.502
U14A C66U	0.335
G13C G42U	0.201
G13C G42C	0.3
U14G G21C	0.342
U14G G21A	0.686
U14A C38U	0.478
U14C A28C	0.565
G13U A28C	0.34
U14C C66U	0.408

Variant	self-cleavage
U14C C66G	0.337
G13C U58G	0.398
G13U C50G	0.259
G13U C50A	0.213
U14C A35G	0.953
U14C A35U	0.713
U14A C50G	0.279
G13U G57A	0.123
G13C G25C	0.356
G13C A30C	0.112
G13C C16A	0.597
U14A G40C	0.187
U14A G40A	0.317
U14A G40U	0.127
G13C C37A	0.204
G13C C37U	0.508
G15A A64G	0.528
G15A A59G	0.111
U14A U33G	0.207
U14A U33A	0.137
U14A U33C	0.153
U14G G56U	0.122
U14G C37U	0.547
U14C A43C	0.114

Variant	self-cleavage
U14C A43U	0.094
U14C A43G	0.147
G15A A71U	0.785
G13A G40A	0.33
U14C G68C	0.212
G13C A36C	0.304
G13U U60G	0.404
G13U U60A	0.696
G13U U60C	0.902
U14A U60G	0.614
G13U C38U	0.231
G13U C38A	0.188
U14C G32A	0.0498
G13C U14C	0.583
U14A C16G	0.594
U14A C16U	0.813
U14A C16A	0.849
U14A A31G	0.52
U14A A31C	0.391
U14C U60A	0.795
U14G G15U	0.796
G13U G69A	0.312
G13C A41G	0.498
